B1: Peroxisomal biogenesis factor 3 (Saccharomyces cerevisiae), P28795 (parent)
chain: MAPNQRSRSLLQRHRGKVLISLTGIAALFTTGSVVVFFVKRWLYKQQLRITEQHFIKEQIKRRFEQTQEDSLYTIYELLPVWRMVLNENDLNLDSIVTQLKDQKNQLTRAKSSESRESSPLKSKAELWNELELKSLIKLVTVTYTVSSLILLTRLQLNILTRNEYLDSAIKLTMQQENCNKLQNRFYNWVTSWWSDPEDKADDAMVMAAKKSKKEGQEVYINEQAFLSLSWWILNKGWLSYNEIITNQIEIEFDGIHPRDTLTLEEFSSRLTNIFRNTNSQIFQQNNNNLTSILLPKDSSGQEFLLSQTLDADALTSFHSNTLVFNQLVNELTQCIESTATSIVLESLINESFHFIMNKVGIKTIAKKKPGQEDQQQYQMAVFAMSMKDCCQEMLQTTAGSSHSGSVNEYLATLDSVQPLDDLSASVYSNFGVSSSFSFKP
partner: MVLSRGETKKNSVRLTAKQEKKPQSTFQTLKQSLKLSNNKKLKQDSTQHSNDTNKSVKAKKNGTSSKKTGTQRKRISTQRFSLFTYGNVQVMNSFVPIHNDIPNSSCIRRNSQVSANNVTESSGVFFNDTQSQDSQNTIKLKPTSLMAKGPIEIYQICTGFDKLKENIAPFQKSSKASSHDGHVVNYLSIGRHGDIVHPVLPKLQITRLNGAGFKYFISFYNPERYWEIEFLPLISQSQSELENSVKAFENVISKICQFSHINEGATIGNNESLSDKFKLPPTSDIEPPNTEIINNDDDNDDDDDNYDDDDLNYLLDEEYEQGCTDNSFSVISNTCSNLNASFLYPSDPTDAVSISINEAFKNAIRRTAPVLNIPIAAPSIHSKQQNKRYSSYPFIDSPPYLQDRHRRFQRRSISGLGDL

Variants of: B1
Conditions: with inp1_yeast INP1, Q03694

Variant | effect of a mutation on the interaction
V81E | disrupting interaction

Variants of: B1
Conditions: with inp1_yeast INP1, Q03694
Remark: another data set of the same source

Variant | effect of a mutation on the interaction
N188I | decreasing interaction

From IntAct's records for PubMed 23900285
